Source: publication PMC8533642 (Journal of medicinal chemistry, 2021)
Square brackets hold non-standard residues; d marks the D form. Peptide text beside a SMILES is read from it. dPhe(4-I) = N[C@H](Cc1ccc(I)cc1)C(=O)O; d2Nal = N[C@H](Cc1ccc2ccccc2c1)C(=O)O

B1: Ac-DPhe(pI)-Arg-Trp-Arg-NH2 (peptide)
peptide: Ac-[dPhe(4-I)]RWR-NH2
SMILES: CC(=O)N[C@H](Cc1ccc(I)cc1)C(=O)N[C@@H](CCCNC(=N)N)C(=O)N[C@@H](Cc1c[nH]c2ccccc12)C(=O)N[C@@H](CCCNC(=N)N)C(N)=O
B2: Ac-DPhe(pI)-Arg-Trp-DLys-NH2 (peptide)
peptide: Ac-[dPhe(4-I)]RW[dK]-NH2
SMILES: CC(=O)N[C@H](Cc1ccc(I)cc1)C(=O)N[C@@H](CCCNC(=N)N)C(=O)N[C@@H](Cc1c[nH]c2ccccc12)C(=O)N[C@H](CCCCN)C(N)=O
B3: Ac-DPhe(pI)-Arg-DPhe(pI)-Arg-NH2 (peptide)
peptide: Ac-[dPhe(4-I)]R[dPhe(4-I)]R-NH2
SMILES: CC(=O)N[C@H](Cc1ccc(I)cc1)C(=O)N[C@@H](CCCNC(=N)N)C(=O)N[C@H](Cc1ccc(I)cc1)C(=O)N[C@@H](CCCNC(=N)N)C(N)=O
B4: Ac-DPhe(pI)-Arg-DPhe(pI)-DLys-NH2 (peptide)
peptide: Ac-[dPhe(4-I)]R[dPhe(4-I)][dK]-NH2
SMILES: CC(=O)N[C@H](Cc1ccc(I)cc1)C(=O)N[C@@H](CCCNC(=N)N)C(=O)N[C@H](Cc1ccc(I)cc1)C(=O)N[C@H](CCCCN)C(N)=O

Key:
mMC1R = mMC1R (Mus musculus, UniProt Q01727); experiment: AlphaScreen cAMP agonist assay, HEK293 cells stably expressing mMC1R; assay type: cell-based; details: full agonist = 90% of maximal NDP-MSH signal
mMC1R, sequence (Q01727 whole entry): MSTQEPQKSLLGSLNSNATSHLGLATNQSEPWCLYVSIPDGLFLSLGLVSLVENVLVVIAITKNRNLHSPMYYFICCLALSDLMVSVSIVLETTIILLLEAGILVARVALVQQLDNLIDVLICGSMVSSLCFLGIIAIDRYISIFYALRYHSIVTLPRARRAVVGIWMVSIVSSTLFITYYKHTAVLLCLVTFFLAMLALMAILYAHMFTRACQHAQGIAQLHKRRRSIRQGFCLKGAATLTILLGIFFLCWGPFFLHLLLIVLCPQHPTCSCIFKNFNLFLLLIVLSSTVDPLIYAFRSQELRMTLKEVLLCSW

[1] = molecular target: mouse melanocortin-1 receptor (mouse) (UniProt Q01727)
mouse melanocortin-1 receptor (mouse), sequence (Q01727 whole entry): as above

[2] = molecular target: mouse melanocortin-3 receptor (mouse) (UniProt P33033)
mouse melanocortin-3 receptor (mouse), sequence (P33033 whole entry): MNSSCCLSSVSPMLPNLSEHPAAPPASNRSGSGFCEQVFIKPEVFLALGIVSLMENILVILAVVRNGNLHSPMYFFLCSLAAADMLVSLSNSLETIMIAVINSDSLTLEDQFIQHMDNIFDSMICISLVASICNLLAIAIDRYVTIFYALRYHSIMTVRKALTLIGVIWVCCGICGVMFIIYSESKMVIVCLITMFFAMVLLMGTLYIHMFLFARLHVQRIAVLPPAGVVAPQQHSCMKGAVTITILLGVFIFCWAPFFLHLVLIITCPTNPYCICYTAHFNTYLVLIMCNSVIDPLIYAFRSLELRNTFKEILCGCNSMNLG

[3] = molecular target: mouse melanocortin-4 receptor (mouse) (UniProt P56450)
mouse melanocortin-4 receptor (mouse), sequence (P56450 whole entry): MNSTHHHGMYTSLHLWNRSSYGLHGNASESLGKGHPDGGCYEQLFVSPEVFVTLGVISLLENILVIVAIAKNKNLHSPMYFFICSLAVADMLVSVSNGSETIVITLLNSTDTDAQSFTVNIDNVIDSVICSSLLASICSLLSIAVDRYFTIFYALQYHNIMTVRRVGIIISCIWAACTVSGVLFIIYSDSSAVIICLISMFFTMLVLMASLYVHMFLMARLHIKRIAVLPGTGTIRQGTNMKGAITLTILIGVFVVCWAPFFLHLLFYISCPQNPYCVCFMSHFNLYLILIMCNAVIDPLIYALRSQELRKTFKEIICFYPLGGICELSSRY

[4] = molecular target: mouse melanocortin-5 receptor (mouse) (UniProt P41149)
mouse melanocortin-5 receptor (mouse), sequence (P41149 whole entry): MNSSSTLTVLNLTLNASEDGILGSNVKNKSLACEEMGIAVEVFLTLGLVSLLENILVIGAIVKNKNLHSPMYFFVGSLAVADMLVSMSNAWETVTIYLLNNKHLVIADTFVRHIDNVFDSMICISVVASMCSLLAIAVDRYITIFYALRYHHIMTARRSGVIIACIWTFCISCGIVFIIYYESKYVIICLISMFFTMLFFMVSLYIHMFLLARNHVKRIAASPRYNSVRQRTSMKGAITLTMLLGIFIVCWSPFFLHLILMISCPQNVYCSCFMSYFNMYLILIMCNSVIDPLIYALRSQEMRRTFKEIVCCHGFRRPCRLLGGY

[5] = molecular target: mouse melanocortin-3 receptor (mouse) (UniProt P33033); remark: listed apart in the source
[6] = molecular target: mouse melanocortin-4 receptor (mouse) (UniProt P56450); remark: listed apart in the source

Molecule	mMC1R agonist activity in words (mMC1R)	% of maximal NDP-MSH response at 100 μM, cAMP AlphaScreen [1] [%]	agonist EC50, cAMP AlphaScreen [2] [µM]	% of maximal NDP-MSH response at 100 μM, cAMP AlphaScreen [3] [%]	agonist EC50, cAMP AlphaScreen [4] [µM]	antagonist Ki = 10^-(pA2), NDP-MSH at mMC3R, cAMP AlphaScreen [5] [µM]	pA2, antagonism of NDP-MSH at mMC3R, Schild analysis, cAMP AlphaScreen [5]	antagonist Ki = 10^-(pA2), NDP-MSH at mMC4R, cAMP AlphaScreen [6] [nM]	pA2, antagonism of NDP-MSH at mMC4R, Schild analysis, cAMP AlphaScreen [6]	agonist EC50, cAMP AlphaScreen [1] [µM]	agonist EC50, cAMP AlphaScreen [3] [µM]	% receptor activation relative to NDP-MSH (partial agonist), cAMP AlphaScreen [1] [%]	apparent EC50 (partial agonist), cAMP AlphaScreen [1] [µM]	% of maximal NDP-MSH response at 100 μM, cAMP AlphaScreen [2] [%]
CC(=O)N[C@H](Cc1ccc2ccccc2c1)C(=O)N[C@@H](CCCNC(=N)N)C(=O)N[C@H](Cc1ccc(I)cc1)C(=O)N[C@@H](CCCNC(=N)N)C(N)=O [Peptide 21, Ac-DNal(2’)-Arg-DPhe(pI)-Arg-NH2] (Ac-[d2Nal]R[dPhe(4-I)]R-NH2)	full agonist activity	–	–	–	–	–	–	–	–	–	–	–	–	–
CC(=O)N[C@H](Cc1ccc2ccccc2c1)C(=O)N[C@@H](CCCNC(=N)N)C(=O)N[C@H](Cc1ccc(I)cc1)C(=O)N[C@H](CCCCN)C(N)=O [Peptide 19, Ac-DNal(2’)-Arg-DPhe(pI)-DLys-NH2]	full agonist activity	–	–	–	–	–	–	–	–	–	–	–	–	–
Ac-DNal(2’)-DNal(2’)-Trp-DLys-NH2 (peptide)	–	25	> 100	30	> 100	1.6	5.8	200	6.7	–	–	–	–	–
Ac-DNal(2’)-Arg-DPhe(pI)-Arg-NH2 (peptide)	–	–	> 100	–	> 100	–	7.1	–	8.6	0.04	> 100	–	–	–
Ac-DNal(2’)-Arg-DPhe(pI)-DLys-NH2 (peptide)	–	–	> 100	–	> 100	–	6.9	–	8.5	0.22	> 100	–	–	–
B1	–	–	–	–	> 100	–	7.4	–	8.7	–	> 100	50	7.9	25
B2	–	–	> 100	–	> 100	–	6.2	–	7.6	> 100	> 100	–	–	–
B3	–	–	> 100	–	> 100	–	7.4	–	8.5	0.007	> 100	–	–	–
B4	–	–	> 100	–	> 100	–	7.5	–	8.5	0.035	> 100	–	–	–
